125 sequences from the supplement of paper PMC9112550, “Optimization of the antimicrobial peptide Bac7 by deep mutational scanning” (BMC Biology, 2022) can be followed below.

This series deals with Escherichia coli TOP10. The series is described as follows: shrunken log2 fold change of peptide-encoding DNA abundance (4.5 h post-induction vs induction); higher = less antimicrobial activity (less host growth inhibition). The conditions noted are these: time post-induction: 4.5 h; library: site-saturation at positions 5, 18, 19, 20.
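Further: peptides expressed intracellularly from a pBAD plasmid library in pooled LB shake-flask culture, induced with 0.3% L-arabinose, DNA abundance read by NGS, three biological replicates, DESeq2 with apeglm shrinkage.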

Take RRIRERPPRLPRPRPRPVQQPRP: the “shrunken log2 fold change” value was -0.168.
Next, RRIRCRPPRLPRPRPRPYSQPRP: -0.781; RRIRARPPRLPRPRPRPIYNPRP: -0.668; RRIRGRPPRLPRPRPRPDAQPRP: 2.38.
RRIRVRPPRLPRPRPRPALMPRP: the “shrunken log2 fold change” value turned out to be 0.193.
Next, RRIRNRPPRLPRPRPRPHCCPRP: -0.215.
Next, RRIRIRPPRLPRPRPRPLRHPRP: -0.172; RRIRKRPPRLPRPRPRPGHDPRP: 0.141.
Next, RRIRFRPPRLPRPRPRPAYVPRP: 0.678; RRIRPRPPRLPRPRPRPHKQPRP: -0.022; RRIRLRPPRLPRPRPRPGKFPRP: 0.117.
RRIRLRPPRLPRPRPRPRSEPRP: the “shrunken log2 fold change” value amounted to 0.235.
Next, RRIRDRPPRLPRPRPRPPIMPRP: 0.0621; RRIRTRPPRLPRPRPRPNSSPRP: -0.13.
In the case of RRIRWRPPRLPRPRPRPYYNPRP it was -1.01; in that of RRIRFRPPRLPRPRPRPRTSPRP, 0.223; in that of RRIRRRPPRLPRPRPRPVHWPRP, 0.00204.
In the case of RRIRTRPPRLPRPRPRPFHFPRP it was -0.303; in that of RRIRYRPPRLPRPRPRPGGIPRP, -0.0836; in that of RRIRQRPPRLPRPRPRPQALPRP, 0.0286.
On to RRIRQRPPRLPRPRPRPPKYPRP, for which the “shrunken log2 fold change” value was -0.313.
In the case of RRIRLRPPRLPRPRPRPANGPRP it was 0.115; in that of RRIRCRPPRLPRPRPRPIHMPRP, 0.109.
In the case of RRIRPRPPRLPRPRPRPTGKPRP it was 0.102; in that of RRIRKRPPRLPRPRPRPWYLPRP, 0.0253; in that of RRIRTRPPRLPRPRPRPPSQPRP, 0.269.
As for RRIRMRPPRLPRPRPRPNYCPRP, the “shrunken log2 fold change” value was -0.0723.
Consider RRIRCRPPRLPRPRPRPFTKPRP, for which the “shrunken log2 fold change” value is -0.628.
In the case of RRIRQRPPRLPRPRPRPVGMPRP it was 0.18; in that of RRIRWRPPRLPRPRPRPPIMPRP, 0.271; in that of RRIRFRPPRLPRPRPRPMLNPRP, -0.574.
Next, RRIRQRPPRLPRPRPRPYVEPRP: -0.537; RRIRMRPPRLPRPRPRPDLLPRP: 2.73.
In the case of RRIRVRPPRLPRPRPRPVFNPRP it was -0.392; in that of RRIRTRPPRLPRPRPRPTYEPRP, -0.174.
Consider RRIRHRPPRLPRPRPRPGEVPRP, for which the “shrunken log2 fold change” value worked out at 0.0396.
In the case of RRIRQRPPRLPRPRPRPGIVPRP it was 0.0144; in that of RRIRWRPPRLPRPRPRPSTLPRP, -0.253; in that of RRIRMRPPRLPRPRPRPERWPRP, 1.5.
In the case of RRIRHRPPRLPRPRPRPNMIPRP it was -0.928; in that of RRIRLRPPRLPRPRPRPSSYPRP, -0.542; in that of RRIRARPPRLPRPRPRPCDHPRP, 0.0696.
Consider RRIRNRPPRLPRPRPRPCYPPRP, for which the “shrunken log2 fold change” value is -0.318.
Next, RRIRLRPPRLPRPRPRPSIMPRP: -0.319; RRIRDRPPRLPRPRPRPSLRPRP: 0.188.
In the case of RRIRQRPPRLPRPRPRPHQWPRP it was 0.323.
On to RRIRTRPPRLPRPRPRPEITPRP, for which the “shrunken log2 fold change” value was -0.0572.
Next, RRIRQRPPRLPRPRPRPTWHPRP: 0.0897; RRIRLRPPRLPRPRPRPVVDPRP: 0.117.
Next, RRIRHRPPRLPRPRPRPVALPRP: -0.112.
For the sequence RRIRPRPPRLPRPRPRPPGMPRP, the “shrunken log2 fold change” value came out at 0.501.
Next, RRIRYRPPRLPRPRPRPPHWPRP: 0.203.
Next, RRIRFRPPRLPRPRPRPGGAPRP: 0.263.
Consider RRIRPRPPRLPRPRPRPEERPRP, for which the “shrunken log2 fold change” value is -0.0232.
In the case of RRIRERPPRLPRPRPRPEYSPRP it was -0.422.
Next, RRIRVRPPRLPRPRPRPQGKPRP: 0.00549; RRIRCRPPRLPRPRPRPCGRPRP: -0.184; RRIRIRPPRLPRPRPRPNCEPRP: -0.525.
Turning to RRIRERPPRLPRPRPRPINTPRP, the “shrunken log2 fold change” value was -0.351.
Turning to RRIRYRPPRLPRPRPRPNINPRP, the “shrunken log2 fold change” value is -1.37.
For the sequence RRIRWRPPRLPRPRPRPAANPRP, the “shrunken log2 fold change” value is -0.136.
In the case of RRIRVRPPRLPRPRPRPIHFPRP it was -0.0962; in that of RRIRWRPPRLPRPRPRPGAKPRP, 0.21; in that of RRIRCRPPRLPRPRPRPWKEPRP, 0.124.
In the case of RRIRRRPPRLPRPRPRPGEPPRP it was 0.41; in that of RRIRVRPPRLPRPRPRPMLEPRP, 0.0706.
Next, RRIRCRPPRLPRPRPRPPDWPRP: 0.416; RRIRKRPPRLPRPRPRPKNRPRP: 0.226; RRIRPRPPRLPRPRPRPEKQPRP: -0.0353.
RRIRSRPPRLPRPRPRPMCNPRP: the “shrunken log2 fold change” value is -0.287.
In the case of RRIRQRPPRLPRPRPRPEGFPRP it was -0.0494; in that of RRIRWRPPRLPRPRPRPISCPRP, -0.0467; in that of RRIRTRPPRLPRPRPRPPDIPRP, -0.118.
In the case of RRIRKRPPRLPRPRPRPSCWPRP it was 0.244.
Next, RRIRLRPPRLPRPRPRPEGWPRP: 0.862; RRIRNRPPRLPRPRPRPYMCPRP: -0.18; RRIRSRPPRLPRPRPRPTDGPRP: -0.115.
In the case of RRIRPRPPRLPRPRPRPDRKPRP, the “shrunken log2 fold change” value was -0.124.
In the case of RRIRRRPPRLPRPRPRPIHCPRP it was -0.0105; in that of RRIRRRPPRLPRPRPRPQPWPRP, 0.067.
Turning to RRIRVRPPRLPRPRPRPPFYPRP, the “shrunken log2 fold change” value was -0.0377.
Next, RRIRGRPPRLPRPRPRPAEDPRP: 0.0402; RRIRLRPPRLPRPRPRPFWLPRP: 0.0573.
On to RRIRRRPPRLPRPRPRPDAWPRP, for which the “shrunken log2 fold change” value was 0.325.
Next, RRIRCRPPRLPRPRPRPRCMPRP: -0.143; RRIRCRPPRLPRPRPRPNWTPRP: -0.0217; RRIRLRPPRLPRPRPRPSRIPRP: -0.15.
For RRIRLRPPRLPRPRPRPEKTPRP, the “shrunken log2 fold change” value was -0.00142.
In the case of RRIRLRPPRLPRPRPRPDAQPRP it was 0.34.
Next, RRIRERPPRLPRPRPRPDANPRP: -0.103; RRIRVRPPRLPRPRPRPRFSPRP: -0.17; RRIRTRPPRLPRPRPRPWCMPRP: -0.0742.
Regarding RRIRRRPPRLPRPRPRPVPQPRP, the “shrunken log2 fold change” value is 0.28.
In the case of RRIRIRPPRLPRPRPRPWAIPRP it was -0.0196; in that of RRIRERPPRLPRPRPRPMVAPRP, 0.138.
In the case of RRIRVRPPRLPRPRPRPKLPPRP it was -0.266; in that of RRIRLRPPRLPRPRPRPHWEPRP, 0.0215.
In the case of RRIRMRPPRLPRPRPRPQNHPRP it was -0.337; in that of RRIRCRPPRLPRPRPRPADTPRP, -0.0286; in that of RRIRYRPPRLPRPRPRPILMPRP, -0.0114.
With RRIRRRPPRLPRPRPRPMMQPRP, the “shrunken log2 fold change” value stood at 0.112.
Next, RRIRDRPPRLPRPRPRPAMPPRP: -0.107; RRIRKRPPRLPRPRPRPWPKPRP: 0.274; RRIRGRPPRLPRPRPRPYDFPRP: -0.0968.
In the case of RRIRFRPPRLPRPRPRPPMCPRP it was -0.0102; in that of RRIRLRPPRLPRPRPRPNVGPRP, 0.0116.
For the sequence RRIRARPPRLPRPRPRPSAEPRP, the “shrunken log2 fold change” value is 0.976.
Next, RRIRLRPPRLPRPRPRPTTKPRP: 0.155; RRIRQRPPRLPRPRPRPITVPRP: -0.143.
Next, RRIRPRPPRLPRPRPRPHVYPRP: -0.552; RRIRGRPPRLPRPRPRPSILPRP: 1.03.
As for RRIRFRPPRLPRPRPRPFKRPRP, the “shrunken log2 fold change” value is -0.813.
In the case of RRIRFRPPRLPRPRPRPSFAPRP it was -0.156; in that of RRIRRRPPRLPRPRPRPYGLPRP, -0.0176; in that of RRIRPRPPRLPRPRPRPPHTPRP, 0.398.
In the case of RRIRFRPPRLPRPRPRPETAPRP it was 0.577; in that of RRIRMRPPRLPRPRPRPDRWPRP, 0.926; in that of RRIRYRPPRLPRPRPRPMFGPRP, -0.143.
In the case of RRIRFRPPRLPRPRPRPNIAPRP it was -0.255; in that of RRIRCRPPRLPRPRPRPWDEPRP, 0.247.
For RRIRQRPPRLPRPRPRPLIKPRP, the “shrunken log2 fold change” value was -0.249.
Next, RRIRPRPPRLPRPRPRPSFFPRP: 0.19; RRIRIRPPRLPRPRPRPEAHPRP: 0.0771.
In the case of RRIRIRPPRLPRPRPRPASIPRP it was -0.361; in that of RRIRRRPPRLPRPRPRPTEYPRP, 0.0398.
